ROS activity in Arabidopsis leaf tissue, Average RLU value, 100 nM, ROS activity in Arabidopsis leaf tissue, fold increase over mock treatment, 100 nM and % Activity (compared to unmodified Bt.4Q7Flg22), soybean ROS assay data for two molecules are collected here from US20200170258A1.

The target of assay [1] is FLS2 receptor of Arabidopsis thaliana (Arabidopsis thaliana) (UniProt Q9FL28). As to the kind of experiment: cell-based or functional assay.
In assay [2] the target is … SENSING 2 (FLS2) of soybean (soybean). Nature of the assay: cell-based or functional assay.

FLS2 receptor of Arabidopsis thaliana (Arabidopsis thaliana), sequence (Q9FL28 24-1173): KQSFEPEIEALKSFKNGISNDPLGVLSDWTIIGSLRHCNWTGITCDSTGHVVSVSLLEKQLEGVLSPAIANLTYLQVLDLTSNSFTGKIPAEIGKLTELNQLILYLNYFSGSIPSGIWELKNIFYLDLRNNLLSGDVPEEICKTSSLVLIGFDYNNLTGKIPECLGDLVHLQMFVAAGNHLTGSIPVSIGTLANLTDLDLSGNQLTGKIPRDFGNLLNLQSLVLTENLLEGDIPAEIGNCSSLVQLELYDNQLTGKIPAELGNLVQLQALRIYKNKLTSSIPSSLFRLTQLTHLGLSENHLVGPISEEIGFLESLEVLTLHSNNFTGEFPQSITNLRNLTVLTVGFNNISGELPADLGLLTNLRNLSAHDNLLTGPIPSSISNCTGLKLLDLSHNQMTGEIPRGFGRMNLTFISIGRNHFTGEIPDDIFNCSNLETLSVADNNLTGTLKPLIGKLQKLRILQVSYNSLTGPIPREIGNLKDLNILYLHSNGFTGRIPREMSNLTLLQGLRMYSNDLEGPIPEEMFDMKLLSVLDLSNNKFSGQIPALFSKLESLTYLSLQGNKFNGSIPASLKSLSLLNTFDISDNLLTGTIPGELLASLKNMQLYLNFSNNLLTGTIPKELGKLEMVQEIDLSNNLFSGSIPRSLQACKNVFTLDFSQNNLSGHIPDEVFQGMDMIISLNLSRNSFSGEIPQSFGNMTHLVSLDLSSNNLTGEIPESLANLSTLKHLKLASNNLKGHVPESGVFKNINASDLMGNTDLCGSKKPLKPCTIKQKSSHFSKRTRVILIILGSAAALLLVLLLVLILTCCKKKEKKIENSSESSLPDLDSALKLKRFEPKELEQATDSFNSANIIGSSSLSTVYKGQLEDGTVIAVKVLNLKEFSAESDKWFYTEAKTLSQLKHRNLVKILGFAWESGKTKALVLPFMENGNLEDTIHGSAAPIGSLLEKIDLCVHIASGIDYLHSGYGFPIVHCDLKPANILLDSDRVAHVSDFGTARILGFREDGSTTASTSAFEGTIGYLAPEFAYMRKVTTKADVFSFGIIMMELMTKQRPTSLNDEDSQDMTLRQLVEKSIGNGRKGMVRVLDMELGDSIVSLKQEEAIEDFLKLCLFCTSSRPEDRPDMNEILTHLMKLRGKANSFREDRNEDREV

In assay [1], DRLSSGKRINSASDDAAGLAIA [Bt.4Q7Flg22] registered an ROS activity in Arabidopsis leaf tissue, Average RLU value, 100 nM of 258000 RLU and an ROS activity in Arabidopsis leaf tissue, fold increase over mock treatment, 100 nM of 3.1 fold. The same molecule yielded a % Activity (compared to unmodified Bt.4Q7Flg22), soybean ROS assay in assay [2] of 100%.
In assay [2], Ac-DRLSSGKRINSASDDAAGLAIA-NH2 [Bt.4Q7Flg22 Mod-1] came in with a % Activity (compared to unmodified Bt.4Q7Flg22), soybean ROS assay of 106%.
